Positions count from the first letter of the chain named. Where two headings read alike, the source gives them in different places.
Key:
[1] = molecular target: T1, human CTLA4 expressed on Jurkat T cells (human, UniProt P16410 36-223); experiment: flow cytometry on Jurkat T cells expressing hCTLA4
T1 construct: whole, on cells; also called hCTLA4; cell surface-expressed hCTLA4
Excerpt: After washing, the surface-bound anti-hCTLA4 antibodies were detected with a polyclonal anti-hlgG (Fc-specific) antibody labeled with fluorescein isothiocyanate (FITC)(anti-hlgG-FITC). Binding of anti-hCTLA4 antibodies were detected by flow cytometric analysis. The results were reported a geometric mean fluorescence intensity (MFI) using FlowJo software (FLOWJO, L.L.C., Ashland, Oreg., USA).

[2] = molecular target: T1, human CTLA4 expressed on Jurkat T cells; experiment: cell-based or functional assay
[3] = molecular target: T2, CTLA4-ECD_Fc, soluble hCTLA4 comprising the extracellular domain of hCTLA4 fused to an Fc fragment (human, UniProt P16410 36-161); experiment: flow cytometry; inhibition of CTLA4-ECD_Fc binding to Raji cells (hB7-1/hB7-2)
T2 construct: extracellular domain; not shown: Fc fragment
Procedure: In a first assay, inhibition of hCTLA4 binding to hB7-1 and hB7-2 expressed on the surface of Raji cells was assessed. Raji cells, which are human cells, express high levels of hB7-1 and hB7-2. […] After 30 minutes, 1×10⁵ Raji cells were added to each well and incubated for another 30 minutes. […] IC₅₀'s were calculated using GraphPad Prism software (GraphPad, Inc., La Jolla, Calif., USA).

[4] = molecular target: T1, human CTLA4 expressed on Jurkat T cells; experiment: cell-based or functional assay; remark: listed apart in the source
[5] = molecular target: T1, human CTLA4 expressed on Jurkat T cells; experiment: cell-based or functional assay; remark: listed apart in the source
[6] = molecular target: T3, recombinant human (rhu) PD1 (extracellular domain only) (human, UniProt Q15116 25-170); experiment: SPR (Biacore 3000), antibody captured by anti-human IgG, PD1 as analyte
T3 construct: extracellular domain; also called recombinant human PD1
Procedure: (§1) Biosensor analysis was conducted at 25° C. in an HBS-EP buffer (10 mM HEPES, 150 mM NaCl, 3 mM EDTA, 0.005% polysorbate 20, 0.1% bovine serum albumin, pH 7.4) using a Biacore 3000 optical biosensor equipped with a CM5 sensor chip according to the manufacturer's general protocol. The auto sampler was maintained at ambient temperature. […] About 8000 resonance units (RU) of this antibody was immobilized on these chips. Flow cell 4 was used to analyze captured anti-hPD1 antibodies (about 100 to 200 RU were captured on flow cell 4), while flow cell 3 was used as the reference flow cell. Both analytes, recombinant human PD1 and recombinant cynomolgus PD1, were prepared in five concentrations for each antibody tested. The analyte concentrations tested ranged from 1.2 to 300 nM. All analyte dilutions were prepared in HPS-EP buffer. Each of the five analyte sample concentrations were run in duplicate and in a mixed order, as a means of assessing the reproducibility of binding and mitigating systematic bias to the order of injection. Multiple blank (running buffer) injections also were run and used to assess and subtract system artifacts. The association phase and dissociation phase for all analyte concentrations were monitored for 300 seconds and 1500 seconds, respectively, at a flow rate of 50 μL/min. Between antibody samples the surface of the flow cell was regenerated with 10 mM glycine, pH 1.5 for 30 seconds at a flow rate of 50 μL/min.
(§2) The data was aligned, double referenced, and fit using SCRUBBER 2™ software (BioLogic Software, Pty, Australia), which is a Surface Plasmon Resonance (SPR) data processing and non-linear least squares regression fitting program.

[7] = molecular target: T4, extracellular domain of a recombinant cynomolgus (rcyno) PD1 (cynomolgus monkey, UniProt B0LAJ3 25-170); experiment: as above
T4 construct: also called recombinant cynomolgus PD1
Procedure: as §1, §2

[8] = molecular target: T5, human PD1 expressed on a cell surface (human, UniProt Q15116 25-288); experiment: cell-based or functional assay
[9] = molecular target: T5, human PD1 expressed on a cell surface; experiment: cell-based or functional assay; remark: listed apart in the source
[10] = molecular target: T5, human PD1 expressed on a cell surface; experiment: cell-based or functional assay; remark: listed apart in the source
[11] = molecular target: T5, human PD1 expressed on a cell surface; experiment: flow cytometry on OKT3-activated human T cells, CD4- cells
Procedure: (§3) The following experiment tested whether the selected anti-hPD1 antibodies can bind to native PD1 expressed on the surface of activated T cells. Human PBMCs were pre-activated with OKT3 (an anti-CD3 antibody) at a concentration of 1 μg/ml. After three days, the PBMCs, which were mostly activated T cells at this time, were distributed into a 96 well microtiter plate using 0.1×10⁶ cells/well. […] The antibody bound to CD4⁺ T cells and CD4⁻ T cells (which were predominately CD8⁺ T cells) was detected using anti-hlgG-FITC and an anti-CD4 antibody labeled with allophycocyanin (anti-CD4-APC).
(§4) The samples were analyzed by flow cytometry (FACScalibur, BD), and binding was reported as an MFI. EC₅₀'s for binding were calculated using GraphPad Prism software.

[12] = molecular target: T6, soluble, biotinylated PD1 protein containing only the extracellular region (human, UniProt Q15116 25-170, biotinylated in vivo (site not stated)); experiment: …; inhibition of GST-hPDL1 binding to biotinylated hPD1
T6 construct: extracellular domain; also called biotinylated hPD1
Procedure: Finally, 10 μL of streptavidin donor beads (which can bind the biotinylated hPD1) were added to bring the final concentration of donor beads to 16 μg/mL, and the plates were incubated in the dark at RT for one hour. […] An antibody that inhibits this interaction or binding will decrease the signal, since the inhibiting antibody prevents physical proximity of the donor and acceptor beads.
Plates were read in an EnVision 2103 Multilabel Reader (PerkinElmer) using illumination at a wavelength of 680 nm and reading emission at a wavelength of about […]. The results were plotted and IC₅₀ values were calculated using GraphPad Prism software.

[13] = molecular target: T5, human PD1 expressed on a cell surface; experiment: flow cytometry on OKT3-activated human T cells, CD4+ cells
Procedure: as §3, §4

[14] = molecular target: T5, human PD1 expressed on a cell surface; experiment: cell-based or functional assay; remark: listed apart in the source

T3 sequence (Q15116 25-170): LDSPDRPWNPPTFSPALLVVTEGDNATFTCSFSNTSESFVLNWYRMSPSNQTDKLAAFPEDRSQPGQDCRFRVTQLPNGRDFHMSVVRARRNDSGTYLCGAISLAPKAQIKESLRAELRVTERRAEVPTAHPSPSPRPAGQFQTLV
T5 sequence (Q15116 25-288): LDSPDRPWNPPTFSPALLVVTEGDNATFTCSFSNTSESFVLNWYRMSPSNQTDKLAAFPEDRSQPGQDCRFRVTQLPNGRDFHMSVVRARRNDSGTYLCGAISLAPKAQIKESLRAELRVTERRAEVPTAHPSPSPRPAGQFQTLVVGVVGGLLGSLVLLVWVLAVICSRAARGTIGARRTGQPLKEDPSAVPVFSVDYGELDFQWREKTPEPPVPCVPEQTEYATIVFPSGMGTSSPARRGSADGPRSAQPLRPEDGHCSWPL
T1 sequence (P16410 36-223): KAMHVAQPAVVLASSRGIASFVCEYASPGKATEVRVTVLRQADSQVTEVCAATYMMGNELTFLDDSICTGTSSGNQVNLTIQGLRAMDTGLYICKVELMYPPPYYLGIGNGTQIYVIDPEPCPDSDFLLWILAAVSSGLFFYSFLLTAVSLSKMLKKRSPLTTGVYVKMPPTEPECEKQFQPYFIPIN
T4 sequence (B0LAJ3 entry or part of it limits assumed): as the sequence (Q15116 25-170) above, with D2E, P10A, V19L, T35A, Q75R, T144A counted along it
T2 sequence (P16410 36-161): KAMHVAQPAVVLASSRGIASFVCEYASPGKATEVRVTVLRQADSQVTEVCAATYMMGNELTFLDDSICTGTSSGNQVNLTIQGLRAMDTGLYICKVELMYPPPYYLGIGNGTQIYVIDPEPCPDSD
T6 sequence (Q15116 25-170): as the sequence (Q15116 25-170) above

B1: anti-hCTLA4 antibody 10D4 (antibody, human IgG1, V domains shown)
VH: QVQLVESGGGVVEPGRSLRLSCTASGFTFSSYGMHWVRQAPGKGLEWVAVIWYHPSKKDYADSAKGRFTISRDNSKNTLYLQMNSLRAEDTAVYYCARAGLLGYFDYWGQGTLVTVSS
VL: EIVLTQSPGTLSLSPGERATLSCRASQSVTSYLAWYQQKPGQAPRPLIYGVSSRATGIPDRFSGSGSGTDFTLTISRLEPEDFAVYYCQQYGRYPFTFGPGTKVDIK
notes: unaltered form; also called Anti-CTLA4 10D4; anti-hCTLA4 #10D4
[1]
  EC50: 0.085 nM
[2]
  IC50, luciferase (RLU), CTLA4 Dual-Cell Reporter Assay (Jurkat cells with hCTLA4 plus Raji cells): 6.12 nM
[3]
  IC50: 3.3 nM
[4]
  IC50, luciferase reporter assay (Jurkat cells with CTLA4 plus Raji cells with hCD80 and hCD86): 2.12 nM

B2: altered anti-hCTLA4 10D4 (antibody, human IgG1, kappa, V domains shown)
VH: B1 VH with G44R, Q110D
VL: EIVLTQSPGTLSLSPGERATLSCRASQSVTSYLAWYQQKPGQRPRPLIYGVSSRATGIPDRFSGSGSGTDFTLTISRLEPEDFAVYYCQQYGRYPFTFGDGTKVDIKR
[4]
  IC50, luciferase reporter assay (Jurkat cells with CTLA4 plus Raji cells with hCD80 and hCD86): 3.75 nM

B3: altered anti-hCTLA4 11F4 (antibody, human IgG1, kappa, V domains shown)
VH: B1 VH with T23A, G44R, H54K, K57E, A99G, Q110D
VL: B2 VL with V29I, T30N
[5]
  IC50, luciferase reporter assay (Jurkat cells with CTLA4 plus Raji cells with hCD80 and hCD86): 8.68 nM

B4: anti-hCTLA4 antibody 11F4 (antibody, human IgG1, V domains shown)
VH: B1 VH with T23A, H54K, K57E, A99G
VL: B1 VL with V29I, T30N
notes: unaltered form; also called Anti-CTLA4 11F4; anti-hCTLA4 #11F4
[1]
  EC50: 0.158 nM
[2]
  IC50, luciferase (RLU), CTLA4 Dual-Cell Reporter Assay (Jurkat cells with hCTLA4 plus Raji cells): 7.39 nM
[5]
  IC50, luciferase reporter assay (Jurkat cells with CTLA4 plus Raji cells with hCD80 and hCD86): 4.8 nM
[3]
  IC50: 7.5 nM

B5: anti-hPD1 antibody #1 (antibody, V domains shown)
VH: QVQLVQSGAEVKKPGASVKVSCKASGYTFTNYWIHWVRQAPGQGLEWMGEIDPYDSYTNYNQKFKGRVTMTVDKSTSTVYMELSSLRSEDTAVYYCARPGFTYGGMDFWGQGTLVTVSS
VL: DIQMTQSPSSLSASVGDRVTITCKSSQSLFNSGNQKNYLAWYQQKPGKVPKLLIYGASTRDSGVPYRFSGSGSGTDFTLTISSLQPEDVATYYCQNDHYYPYTFGGGTKVEIKR
notes: also called Anti-hPD1 #1; Anti-PD1 #1
[6]
  Kd: 2.18 nM
  koff: 0.000133 s⁻¹
  kon: 60900 M⁻¹ s⁻¹
[7]
  Kd: 5.06 nM
  koff: 0.000597 s⁻¹
  kon: 118000 M⁻¹ s⁻¹
[8]
  EC50 for CD4+ T cell proliferation (pM), mixed lymphocyte reaction: 135 pM
  EC50 for CD8+ T cell proliferation (pM), mixed lymphocyte reaction: 323 pM
  EC50 for IFN gamma production (pM), mixed lymphocyte reaction: 890 pM
[9]
  IC50, luciferase reporter assay (Jurkat cells with hPD1 plus CHO cells with hPDL1): 2.49 nM
[10]
  IC50, luciferase reporter assay (Jurkat cells with hPD1 plus CHO cells with hPDL1): 2.5 nM
[11]
  EC50: 1.37 nM
[12]
  IC50: 0.197 nM
[13]
  EC50: 0.918 nM
[14]
  IC50, luciferase (RLU), PD1 dual cell reporter assay (Jurkat cells with hPD1 plus CHO-K1 cells with hPDL1): 1.18 nM

B6: altered anti-hPD1 antibody #1 (antibody, human IgG4 S228P, kappa, V domains shown)
VH: B5 VH with G44D, Q111R
VL: B5 VL with V49D, G106R
[9]
  IC50, luciferase reporter assay (Jurkat cells with hPD1 plus CHO cells with hPDL1): 2.65 nM
  IC50, luciferase reporter assay (Jurkat cells with hPD1 plus CHO cells with hPDL1); tested as the mixture Altered anti-CTLA4 10D4 and altered anti-PD1 #1 made in one cell line: 3.8 nM
[10]
  IC50, luciferase reporter assay (Jurkat cells with hPD1 plus CHO cells with hPDL1): 2.67 nM
  IC50, luciferase reporter assay (Jurkat cells with hPD1 plus CHO cells with hPDL1); tested as the mixture Altered anti-CTLA4 11F4 and altered anti-PD1 #1 made in one cell line: 3.34 nM
